Target: amyloid precursor protein C-terminal fragment (APP-CTF), P05067
Assay: co-immunoprecipitation, HEK293 cells, with 10 µM imatinib
Settings: remark: other sources report otherwise

amyloid precursor protein C-terminal fragment (APP-CTF), P05067, sequence (P05067 672-770 limits assumed): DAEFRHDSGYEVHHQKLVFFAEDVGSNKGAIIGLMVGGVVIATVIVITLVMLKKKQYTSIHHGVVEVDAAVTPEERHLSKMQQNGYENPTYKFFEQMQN

reduction of the interaction by imatinib (10 µM): 47%
B1: gSAP-16K-HA (16 KDa C-terminal fragment, amino acid sequence 733-854, of gSAP with a C-terminal HA tag), A4D1B5 733-854 (protein, human, UniProt A4D1B5 733-854, looked up, not shown: small tags and cut ends)
chain: RLMKDLDNTEKNEKLKFSIIVRLPPLIGQKICRLWDHPMSSNIISRNHVTRLLQNYKKQPRNSMINKSSFSVEFLPLNYFIEILTDIESSNQALYPFEGHDNVDAEFVEEAALKHTAMLLGL
